B1: TCEB3B (parent)
chain: STTALGDKQRKANESKGTRESWDS

Variants of: B1
Assay: protein stability index of a GFP-peptide fusion (GPS, HEK-293T) (PSI 1-6); higher = more stable
Details: c terminus: a fixed tail appended
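Also: lentivirally expressed fusions sorted by FACS into six bins by GFP to DsRed ratio, PSI derived from sequencing read proportions per bin multiplied by bin number.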

Going from STTALGDKQRKAWESKGTRESWDS [N13W] to STTALGDKQRKAAESKGTRESWDS [N13A], the protein stability index rises from 3.09 to 3.91.

Going from STTALGDKQRKASESKGTRESWDS [N13S] to STTALGDKQRKAVESKGTRESWDS [N13V], the protein stability index falls from 4.14 to 4.12.

Compared with STTALGDKQRKAQESKGTRESWDS [N13Q], STTALGDKQRKAMESKGTRESWDS [N13M] is lower in protein stability index: 4.1 for the first, 3.7 for the second.

First: STTALGDKQRKADESKGTRESWDS [N13D]
Second: STTALGDKQRKAHESKGTRESWDS [N13H]
The protein stability index of the first is higher: 4.64 for the first, 3.35 for the second.

Compared with STTALGDKQRKANEFKGTRESWDS [S15F], STTALGDKQRKANENKGTRESWDS [S15N] is higher in protein stability index: 3.94 for the first, 4.24 for the second.

First: STTALGDKQRKANEDKGTRESWDS [S15D]
Second: STTALGDKQRKANETKGTRESWDS [S15T]
The protein stability index of the first is higher: 4.93 for the first, 3.38 for the second.

First: STTALGDKQRKANEMKGTRESWDS [S15M]
Second: STTALGDKQRKANEKKGTRESWDS [S15K]
The protein stability index of the first is lower: 3.98 for the first, 4 for the second.

Going from STTALGDKQRKANEQKGTRESWDS [S15Q] to STTALGDKQRKANEGKGTRESWDS [S15G], the protein stability index rises from 4.03 to 4.2.

First: STTALGDKQRKANESKGTHESWDS [R19H]
Second: STTALGDKQRKANESKGTGESWDS [R19G]
The protein stability index of the first is lower: 4.4 for the first, 4.68 for the second.

Going from STTALGDKQRKANESKGTEESWDS [R19E] to STTALGDKQRKANESKGTDESWDS [R19D], the protein stability index falls from 5.27 to 5.16.

Compared with STTALGDKQRKANESKGTNESWDS [R19N], STTALGDKQRKANESKGTVESWDS [R19V] is higher in protein stability index: 4.58 for the first, 5.14 for the second.

Going from STTALGDKQRKANESKGTRNSWDS [E20N] to STTALGDKQRKANESKGTRPSWDS [E20P], the protein stability index rises from 4.68 to 4.89.

Compared with STTALGDKQRKANESKGTRLSWDS [E20L], STTALGDKQRKANESKGTRTSWDS [E20T] is higher in protein stability index: 4.6 for the first, 4.86 for the second.

Going from STTALGDKQRKANESKGTRRSWDS [E20R] to STTALGDKQRKANESKGTRVSWDS [E20V], the protein stability index rises from 4.2 to 4.32.

Going from STTALGDKQRKANESKGTRWSWDS [E20W] to STTALGDKQRKANESKGTRGSWDS [E20G], the protein stability index rises from 4.5 to 5.

Compared with STTALGDKPRKANESKGTRESWDS [Q9P], STTALGDKCRKANESKGTRESWDS [Q9C] is lower in protein stability index: 3.53 for the first, 3.37 for the second.

Going from STTALGDKWRKANESKGTRESWDS [Q9W] to STTALGDKRRKANESKGTRESWDS [Q9R], the protein stability index rises from 2.45 to 3.52.

Going from STTALGDKLRKANESKGTRESWDS [Q9L] to STTALGDKSRKANESKGTRESWDS [Q9S], the protein stability index rises from 3.67 to 3.71.

Compared with STTALGDKDRKANESKGTRESWDS [Q9D], STTALGDKQRKANESKGTREIWDS [S21I] is higher in protein stability index: 3.92 for the first, 4.93 for the second.

Compared with STTALGDKQRKANESKGTREHWDS [S21H], STTALGDKQRKANESKGTREWWDS [S21W] is lower in protein stability index: 5.02 for the first, 4.34 for the second.

Going from STTALGDKQRKANESKGTREAWDS [S21A] to STTALGDKQRKANESKGTREYWDS [S21Y], the protein stability index rises from 5.05 to 5.09.

Compared with STTALGDKQRKANESKGTREDWDS [S21D], STTAGGDKQRKANESKGTRESWDS [L5G] is lower in protein stability index: 5.1 for the first, 4.11 for the second.

Going from STTAIGDKQRKANESKGTRESWDS [L5I] to STTAVGDKQRKANESKGTRESWDS [L5V], the protein stability index rises from 3.17 to 4.08.

Compared with STTACGDKQRKANESKGTRESWDS [L5C], STTAMGDKQRKANESKGTRESWDS [L5M] is higher in protein stability index: 3.44 for the first, 3.88 for the second.

First: STTAWGDKQRKANESKGTRESWDS [L5W]
Second: STTATGDKQRKANESKGTRESWDS [L5T]
The protein stability index of the first is lower: 3.64 for the first, 4.63 for the second.

First: STTASGDKQRKANESKGTRESWDS [L5S]
Second: STTAKGDKQRKANESKGTRESWDS [L5K]
The protein stability index of the first is lower: 4.25 for the first, 4.37 for the second.

Going from STTALGDKQRKANHSKGTRESWDS [E14H] to STTALGDKQRKANISKGTRESWDS [E14I], the protein stability index falls from 3.88 to 3.81.

First: STTALGDKQRKANQSKGTRESWDS [E14Q]
Second: STTALGDKQRKANPSKGTRESWDS [E14P]
The protein stability index of the first is higher: 3.54 for the first, 3.19 for the second.

Going from STTALGDKQRKANFSKGTRESWDS [E14F] to QTTALGDKQRKANESKGTRESWDS [S1Q], the protein stability index rises from 3 to 3.67.

First: ETTALGDKQRKANESKGTRESWDS [S1E]
Second: TTTALGDKQRKANESKGTRESWDS [S1T]
The protein stability index of the first is higher: 3.85 for the first, 3.61 for the second.

First: HTTALGDKQRKANESKGTRESWDS [S1H]
Second: GTTALGDKQRKANESKGTRESWDS [S1G]
The protein stability index of the first is lower: 3.64 for the first, 3.9 for the second.

Going from KTTALGDKQRKANESKGTRESWDS [S1K] to NTTALGDKQRKANESKGTRESWDS [S1N], the protein stability index rises from 3.12 to 4.3.

Going from YTTALGDKQRKANESKGTRESWDS [S1Y] to PTTALGDKQRKANESKGTRESWDS [S1P], the protein stability index rises from 3.6 to 3.77.

Going from FTTALGDKQRKANESKGTRESWDS [S1F] to CTTALGDKQRKANESKGTRESWDS [S1C], the protein stability index rises from 2.81 to 3.47.

Going from STTALGDKQRKANESFGTRESWDS [K16F] to STTALGDKQRKANESTGTRESWDS [K16T], the protein stability index rises from 3.8 to 4.24.

First: STTALGDKQRKANESYGTRESWDS [K16Y]
Second: STTALGDKQRKANESGGTRESWDS [K16G]
The protein stability index of the first is lower: 3.6 for the first, 4.52 for the second.

Compared with STTALGDKQRKANESPGTRESWDS [K16P], STTALGDKQRKANESWGTRESWDS [K16W] is lower in protein stability index: 4.29 for the first, 3.13 for the second.

Going from STTALGDKQRKANESHGTRESWDS [K16H] to STTALGDKQRKANESLGTRESWDS [K16L], the protein stability index rises from 4.14 to 4.3.

First: STTALVDKQRKANESKGTRESWDS [G6V]
Second: STTALDDKQRKANESKGTRESWDS [G6D]
The protein stability index of the first is lower: 2.98 for the first, 4.12 for the second.

First: STTALEDKQRKANESKGTRESWDS [G6E]
Second: STTALIDKQRKANESKGTRESWDS [G6I]
The protein stability index of the first is higher: 4.31 for the first, 3.59 for the second.

Going from STTALMDKQRKANESKGTRESWDS [G6M] to STTALYDKQRKANESKGTRESWDS [G6Y], the protein stability index falls from 3.93 to 3.68.

Going from SSTALGDKQRKANESKGTRESWDS [T2S] to SQTALGDKQRKANESKGTRESWDS [T2Q], the protein stability index falls from 4.09 to 3.33.

First: SDTALGDKQRKANESKGTRESWDS [T2D]
Second: SPTALGDKQRKANESKGTRESWDS [T2P]
The protein stability index of the first is higher: 4.01 for the first, 3.94 for the second.

First: SETALGDKQRKANESKGTRESWDS [T2E]
Second: SKTALGDKQRKANESKGTRESWDS [T2K]
The protein stability index of the first is lower: 4.05 for the first, 4.11 for the second.

First: SNTALGDKQRKANESKGTRESWDS [T2N]
Second: SLTALGDKQRKANESKGTRESWDS [T2L]
The protein stability index of the first is higher: 4.25 for the first, 3.67 for the second.

First: STTALGDKQRKKNESKGTRESWDS [A12K]
Second: STTALGDKQRKRNESKGTRESWDS [A12R]
The protein stability index of the first is lower: 3.13 for the first, 3.56 for the second.

First: STTALGDKQRKTNESKGTRESWDS [A12T]
Second: STTALGDKQRKSNESKGTRESWDS [A12S]
The protein stability index of the first is lower: 3.59 for the first, 4.3 for the second.

Source: the supplement of paper PMC10567573
